Measurements reported in patent US11731099B2, “Method for controlling encapsulation efficiency and burst release of water soluble molecules from nanoparticles and microparticles produced by inverse flash nanoprecipitation” (The Trustees of Princeton University, priority 2018, dated 2023).

Assay: Burst release of lysozyme from coated nanoparticles in release media
Assay type: physicochemical
Details: PBS with 0.2 wt % Tween-20 versus PBS, 37° C.

Substance: lysozyme
- increase of burst release in presence of surfactant: 25%
